Assay results from patent publication US20250340655A1, “EPHA2-TARGETING ANTIBODIES AND THEIR APPLICATIONS IN CANCER TREATMENT” (TAIPEI MEDICAL UNIVERSITY, priority 2022, published 2025).

Columns and labels:
[1] = system: EphA2pep_P1 and EphA2pep_P2 synthetic peptides; test: Dot blot assay with synthetic peptides; format: binding; conditions: dot blot (FIG. 9B)
Text: We used peptide enzyme-linked immunosorbent assay (ELISA) to identify the designed epitope on EphA2; the BSA-conjugated peptides EphA2pep_P1 (BSA-[…]) and EphA2pep_P2 (BSA-[…]) each represent the two segments of the linear epitope designed on EphA2. EphA2pep_PIP2 (BSA-[…]) represents the two linear epitope sequences connected by a linker. These peptides were synthesized and conjugated with BSA (Kelowna International Scientific). The BSA-conjugated peptides were individually coated on a 96-well microplate at 4° C. overnight. After the wells were blocked with 3% BSA, IgG hSD5 was added and incubated. Next, an HRP-conjugated anti-HA tag antibody (Cell Signaling Technology) was used to detect bound scFv. Finally, the TMB substrate was added for development, and the reaction was stopped by adding 1 N HCl. Absorbance was measured by determining the OD at 450 nm. A dot blot assay was used to detect the binding of IgG hSD5 to the synthesized peptides; […] of individual peptides (1 mg/mL; in triplicate) were dropped on the NC membrane and maintained at RT for complete absorption. Blocking with 3% BSA was performed at RT for 1 h. Then, IgG hSD5 (10 μg/mL) was added, and the reaction was allowed to proceed for 1 h at RT. After the membrane was washed, the HRP-conjugated anti-HA tag antibody was added, and the reaction was allowed to proceed for 1 h at RT. […]

[2] = molecular target: T1, endogenous EphA2 molecules on three strains of gastric cancer cells (Homo sapiens, UniProt P29317); test: Flow cytometry binding on gastric cancer cells; conditions: flow cytometry (FIG. 15A)
T1 construct: identify endogenous EphA2 molecules on three strains of gastric cancer cells; endogenous in cells
Text: Flow cytometry was used to analyze the response of hSD5 IgG in identifying endogenous EphA2 molecules on the three strains of gastric cancer cell lines. PC represents the use of commercial Ab to determine the expression of EphA2 on cancer cells; NC represents the control group with irreverent of the isotype IgG1 antibody. The hSD5 was used to identify endogenous EphA2 molecules on three strains of gastric cancer cells by flow cytometry analysis. […] (FIG. 15A)

[3] = molecular target: T2, endogenous EphA2 molecules on cholagiocarcinoma cell lines (HuCCT1, ssp-25, RBE, TFK) and bladder cancer cell line (PC-3) (Homo sapiens, UniProt P29317); test: Flow cytometry binding on cholagiocarcinoma and bladder cancer cell lines; conditions: cholagiocarcinoma and bladder cancer cell lines (FIG. 17B)
T2 construct: endogenous in cells; host or cells: HuCCT1, ssp-25, RBE, TFK, PC-3
Text: Flow cytometry was used to analyze the response of hSD5 IgG with different concentrations in identifying endogenous EphA2 molecules on the four strains of cholagiocarcinoma cell lines and bladder cancer cell line. PC represents the use of commercial Ab to determine the expression of EphA2 on cancer cells.

[4] = molecular target: T3, endogenous EphA2 molecule on colon cancer cells (HCT116, SW480 and SW460) (Homo sapiens, UniProt P29317); test: Flow cytometry binding on colon cancer cells; conditions: flow cytometry (FIG. 18B)
T3 construct: endogenous in cells; host or cells: HCT116, SW480, SW460

HCT116, SW480 and SW460 = test: MTS growth inhibition, colon cancer cells; format: cell-based; conditions: 3 days (FIG. 18C)
Experimental: The growth inhibitory effect of hSD5-ADC on the three strains of colon cancer cells were tested under different concentrations. At indicated concentrations interacted with the cancer cells for 3 days, and the effects on the growth of cancer cells were observed by MTS assay. (FIG. 18C)

SNU-16, N87 and MKN-45 = test: MTS growth inhibition, gastric cancer cells; format: cell-based; conditions: 3 days (FIG. 15B)
Experimental: The growth inhibitory effect of hSD5-ADC on the three strains of gastric cancer cells were tested under different concentrations. At indicated concentrations interacted with the cancer cells for 3 days, and the effects on the growth of cancer cells were observed by MTS assay. […] (FIG. 15B)

Mia PaCa-2 tumor = Mia PaCa-2 tumor xenograft model (IgG hSD5, gemcitabine); format: in vivo, mouse
Experimental: The freshly prepared BxPc-3 and Mia PaCa-2 cancer cells were harvested during the log growth phase and resuspended in PBS for tumor implantation. Each NOD/SCID mouse was subcutaneously inoculated with cancer cells (5×10^6 to BxPc-3 and 1×10^7 to Mia PaCa-2) for tumor formation. The tumor size was measured twice weekly, and the volume was calculated as follows: V=0.5lw^2, where l=the length and w=the width. When the tumor size was approximately 100 mm3, animals were divided into groups that received (a) vehicle alone through intravenous injection (i.v.) once weekly (qwk), (b) control human IgG1 at 20 mg/kg through i.v. qwk, (c) and (d) hSD5 IgG1 at 2 or 20 mg/kg through i.v. qwk, (e) and (f) gemcitabine at 20 or 100 mg/kg through i.v. twice weekly (biw), or (g) hSD5 IgG1 at 2 mg/kg through i.v. qwk combined with gemcitabine at 20 mg/kg through i.v. biw. At the end of the experiment, the antitumor effects were quantified by dividing the tumor volumes in the treatment groups by those in the control groups and multiplying them by 100 to represent tumor growth inhibition (TGI; %). The mice were also examined frequently for overt signs of adverse drug-related side effects.
The pancreatic tissue microarray slide (US Biomax, PA483e) was used to detect and analyze the EphA2 expression of clinical samples. In the xenograft animal model, the excised BxPc-3 and Mia PaCa-2 tumors were fixed in formalin, embedded in paraffin, and sliced for immunohistochemical staining (IHC). Commercial antibodies (Cell signaling, Dako; Agilent Technologies; and Abcam) were used for staining the EphA2 molecule, cell proliferation marker Ki-67, and apoptosis marker cleaved caspase 3. The effects of staining were observed using a Zeiss Axioskop-2 microscope (Carl Zeiss).
Mia PaCa-2 xenograft mice was also used to determine the inhibitory effect of IgG hSD5 on in vivo tumor growth. Administration of IgG hSD5 (20 mg/kg, iv, qwk, indicated as blue filled inverted triangles) and Gemcitabine (100 mg/kg, iv, biw, indicated as orange filled squares) were used to test the inhibition effect on BxPc-3 tumor growth, n=6, TGI denotes Tumor growth inhibition. (FIG. 8A) Administration of IgG hSD5 (2 mg/kg, iv, qwk, indicated by solid black triangles), Gemcitabine (20 mg/kg, iv, biw, indicated by black open squares), and the experimental group that combined IgG and Gemcitabine treatment simultaneously (indicated by solid red diamonds) were used to teat the growth inhibitory effect of BxPc-3 on the tumor. (FIG. 8B) During treatments, the weight changes of each mouse group were tracked. (FIG. 8C) The expression levels of EphA2, cell proliferation marker Ki67, and apoptosis-related marker cleaved caspase3 in the excised tumor groups were analyzed by IHC staining. (FIG. 8D)

T1 sequence (P29317 24-976): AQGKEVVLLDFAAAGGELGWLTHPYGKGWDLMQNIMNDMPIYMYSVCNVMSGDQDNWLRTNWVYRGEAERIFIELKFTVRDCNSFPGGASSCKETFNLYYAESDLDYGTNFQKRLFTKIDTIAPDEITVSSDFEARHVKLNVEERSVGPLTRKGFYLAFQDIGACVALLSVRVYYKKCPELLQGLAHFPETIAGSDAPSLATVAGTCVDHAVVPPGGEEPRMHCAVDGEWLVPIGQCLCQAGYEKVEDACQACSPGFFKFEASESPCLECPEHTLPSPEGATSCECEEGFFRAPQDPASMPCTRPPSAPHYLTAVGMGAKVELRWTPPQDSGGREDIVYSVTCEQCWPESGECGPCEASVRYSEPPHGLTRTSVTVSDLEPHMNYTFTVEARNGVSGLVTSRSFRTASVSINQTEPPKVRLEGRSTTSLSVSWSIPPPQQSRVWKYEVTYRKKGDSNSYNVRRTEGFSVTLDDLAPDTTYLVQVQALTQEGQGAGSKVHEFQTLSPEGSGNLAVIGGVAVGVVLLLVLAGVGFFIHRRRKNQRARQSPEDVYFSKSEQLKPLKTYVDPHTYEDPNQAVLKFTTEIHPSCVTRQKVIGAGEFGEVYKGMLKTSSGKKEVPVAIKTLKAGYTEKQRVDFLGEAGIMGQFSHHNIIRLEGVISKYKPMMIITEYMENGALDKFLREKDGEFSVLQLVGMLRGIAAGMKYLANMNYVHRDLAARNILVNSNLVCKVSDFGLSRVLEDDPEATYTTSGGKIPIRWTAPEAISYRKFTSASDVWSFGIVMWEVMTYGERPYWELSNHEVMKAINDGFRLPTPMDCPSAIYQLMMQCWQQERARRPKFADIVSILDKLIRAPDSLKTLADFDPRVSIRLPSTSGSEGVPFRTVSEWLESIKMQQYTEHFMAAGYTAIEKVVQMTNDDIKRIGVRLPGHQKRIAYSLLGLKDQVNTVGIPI
T3 sequence (P29317 24-976): as above
T2 sequence (P29317 24-976): as above

B1: IgG hSD5: complete humanized anti-EphA2 IgG (IgG1) of hSD5 (antibody, V domains shown)
VH: QVQLVESGGGLVQPGGSLRLSCAASGFTFSDYGMGWVRQAPGKGLEWVAGISAAGSFTPYGAAVKGRFTISRDNSKNTVYLQMNSLRAEDTAVYYCARIPSGYRAGEIYTWGQGTLVTVSS
VL: LTQPPSVSVSPGQTVRITCSGSSGSYGWYQQKSPGQAPVTLIYDNDKRPSGIPERFSGSSSGSTSTLTISGVQAEDEADYYCGSADSSTYVGMFGGGTKLTVL
- binding reaction with EphA2pep_P1 compared with EphA2pep_P2 [1]: stronger
- recognition of EphA2pep_P1 and EphA2pep_P2 [1]: can recognize both the antigen fragments
- binding response to EphA2 molecules on gastric cancer cells [2]: significant binding response
- binding response to EphA2 molecules on cancer cells [3]: significant binding response
- binding response to EphA2 molecules on cancer cells [4]: significant binding response
- growth inhibitory response of colon cancer cells (HCT116, SW480 and SW460): does not provide ideal inhibition effect
- growth inhibitory response of gastric cancer cells (SNU-16, N87 and MKN-45): does not provide ideal inhibition effect
- expression levels of EphA2 and Ki-67 in the tissue (Mia PaCa-2 tumor; IHC of Mia PaCa-2 tumor tissue sections (FIG. 8D)): significantly decreased
- TGI (tumor growth inhibition) (Mia PaCa-2 tumor; Mia PaCa-2 xenograft, 20 mg/kg): 63.2%
